# Data from publication PMC10903983 (2024).
# Molecular target: KPNA2 (Homo sapiens, UniProt P52292)
# Assay: MST
row,Kd [µM],Binder
1,~31.1,KLVFF [FF-T nucleopeptide]
2,~1.16,KLVFFVKRKKKP [NLS-FF-T nucleopeptide]
